Measured values: patent US12503443B2, “Process-scale synthesis of a plasma kallikrein inhibitor” (BioCryst Pharmaceuticals, Inc., priority 2019, dated 2025)

Tests used:
human plasma kallikrein = human plasma kallikrein (Homo sapiens, UniProt P03952); test: in vitro biochemical assay measuring inhibition of human plasma kallikrein activity; conditions: protocols and results in WO 2015/134998 and US 2017/0073314 A1
Experimental: Compound I was assayed in an in vitro biochemical assay measuring inhibition of human plasma kallikrein activity. Experimental protocols and results of the assays are found in WO 2015/134998 and U.S. Patent Application Publication No. 2017/0073314 A1 (both incorporated by reference).

[1] = system: patients with hereditary angioedema (HAE); conditions: human, in vivo; cited from earlier work
rat models of arthritis = conditions: cited from earlier work
[2] = system: mouse model of middle cerebral artery occlusion (MCAO); conditions: cited from earlier work
[3] = system: lipopolysaccharide (LPS)- or bacterial-induced sepsis in animals; conditions: cited from earlier work
sepsis patients = conditions: cited from earlier work

Sequence of human plasma kallikrein (P03952 391-638 limits assumed): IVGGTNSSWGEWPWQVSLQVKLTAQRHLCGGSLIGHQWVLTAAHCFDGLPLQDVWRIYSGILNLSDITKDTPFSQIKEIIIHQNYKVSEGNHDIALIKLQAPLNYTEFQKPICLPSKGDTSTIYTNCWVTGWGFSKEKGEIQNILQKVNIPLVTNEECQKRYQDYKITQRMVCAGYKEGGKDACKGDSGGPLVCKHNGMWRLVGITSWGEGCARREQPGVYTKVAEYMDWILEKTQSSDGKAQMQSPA
Sequence of human plasma kallikrein (P03952 20-390 partner limits assumed): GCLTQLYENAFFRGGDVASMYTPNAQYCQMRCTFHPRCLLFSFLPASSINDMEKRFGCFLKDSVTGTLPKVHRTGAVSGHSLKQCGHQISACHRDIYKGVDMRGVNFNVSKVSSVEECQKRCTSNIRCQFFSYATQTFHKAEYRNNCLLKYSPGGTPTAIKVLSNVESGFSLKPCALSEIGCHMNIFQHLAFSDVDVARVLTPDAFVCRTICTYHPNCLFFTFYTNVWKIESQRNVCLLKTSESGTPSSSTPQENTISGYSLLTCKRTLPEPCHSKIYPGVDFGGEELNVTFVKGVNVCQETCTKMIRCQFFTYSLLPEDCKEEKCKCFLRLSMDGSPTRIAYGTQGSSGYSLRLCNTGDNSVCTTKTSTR

## N#Cc1cccc([C@@H](NCC2CC2)c2ccc(F)c(NC(=O)c3cc(C(F)(F)F)nn3-c3cccc(CN)c3)c2)c1 [Compound I]
Human plasma kallikrein
  inhibition of human plasma kallikrein activity: potent inhibitor

## NC(N)=NCCC[C@@H](N)C(=O)N[C@@H](CCCN=C(N)N)C(=O)N1CCC[C@H]1C(=O)N1C[C@H](O)C[C@H]1C(=O)NCC(=O)N[C@@H](Cc1cccs1)C(=O)N[C@@H](CO)C(=O)N1Cc2ccccc2C[C@@H]1C(=O)N1[C@H](C(=O)N[C@@H](CCCN=C(N)N)C(=O)O)C[C@@H]2CCCC[C@@H]21 [Icatibant]
[1]
  treating HAE: effective

## Cl.NCC1CCC(C(=O)N[C@@H](Cc2ccccc2)C(=O)Nc2ccc(CC(=O)O)cc2)CC1 (stereo partly shown) [PKSI-527]
Rat models of arthritis
  joint swelling: reduce

B1: C1-inhibitor: physiological inhibitor of kallikrein in human plasma (protein, UniProt P05155 23-500, looked up)
Plasma protease C1 inhibitor: NPNATSSSSQDPESLQDRGEGKVATTVISKMLFVEPILEVSSLPTTNSTTNSATKITANTTDEPTTQPTTEPTTQPTIQPTQPTTQLPTDSPTQPTTGSFCPGPVTLCSDLESHSTEAVLGDALVDFSLKLYHAFSAMKKVETNMAFSPFSIASLLTQVLLGAGENTKTNLESILSYPKDFTCVHQALKGFTTKGVTSVSQIFHSPDLAIRDTFVNASRTLYSSSPRVLSNNSDANLELINTWVAKNTNNKISRLLDSLPSDTRLVLLNAIYLSAKWKTTFDPKKTRMEPFHFKNSVIKVPMMNSKKYPVAHFIDQTLKAKVGQLQLSHNLSLVILVPQNLKHRLEDMEQALSPSVFKAIMEKLEMSKFQPTLLTLPRIKVTTSQDMLSIMEKLEFFDFSYDLNLCGLTEDPDLQVSAMQHQTVLELTETGVEAAAASAISVARTLLVFEVQQPFLFVLWDQQHKFPVFMGRVYDPRA
[2]
  infarct size: reduced
[3]
  lesions: reduce
  vascular permeability in multiple organs: reduce
Sepsis patients
  clinical outcome in sepsis patients: Clinical improvement
